What is called pKd is −log10 of the Kd, conventionally taken in molar units. Low values mean a large Kd, high ones a small Kd.

The test has as its target MBP-TNFR1^ECD deletion mutant ΔCRD2 (human) (UniProt P19438). The test is described as follows: ITC; MicroCal PEAQ-ITC, 16 °C; […] (500–600 μM) […] (~60 μM); 20 mM Tris-HCl pH 7.5, 200 mM NaCl; […].

pKd: −log10 of the molar value.

Take “Staphylococcal superantigen-like protein 10 (SSL10), residues 31-227, C-terminal 6xHis (from UniProt A0A0H3K6Z9 31-227) (natural protein)”: the pKd was 4.52.

These data come from PMC9374677.
